Results on six proteins are retold here after PMC4897640, “Functional diversity of family 3 β-glucosidases from thermophilic cellulolytic fungus Humicola insolens Y1” (Scientific Reports, 2016).

For orientation: Km means the concentration of substrate that gives half-maximal velocity. As a reminder, the Vmax is the top rate of the reaction or transport when substrate is in excess. What is called kcat is the maximal rate divided by the concentration of active sites. The kcat/Km is the second-order rate constant that governs catalysis at low substrate concentration.

Substrate in this series: O=[N+]([O-])c1ccc(O[C@@H]2O[C@H](CO)[C@@H](O)[C@H](O)[C@H]2O)cc1
The series is described as follows: purified protein. The note with it: 100 mM Na2HPO4-citric acid.

Where [1] appears, read: optimal conditions (pH 5.5, 55 °C in table; 60 °C in text), pH 5.5.

B1: HiBgl3A (Mycothermus thermophilus) (protein)
chain: NRHRQVIGRNHLNHHHRSQRELAYSPPSYPSPWMDPKAAEWQNAYAKAKAFVSKLTLLEKVNLTTGVGWASEQCVGNTGSVPRLGLRGLCLHDSPLGIRGSDYNSAFPSGQTTAATFDRILMYRRGYAMGKEAKGKGINVLLGPVAGPLGRMPAAGRNWEGFSPDPVLTGVGMAETIKGIQDAGVVACAKHLIGNEQEHFRQAGEDYGFNITEALSSNIDDKTMHELYLWPFVDAVRAGVGSVMCAYTQVNNSYSCQNSYLLNYLLKNELGFQGFVMSDWQAQHAGVSAAVAGLDMSMPGDTTFNTGVSFWGANLTLAVLNGTVPRYRIDDMAMRIMAAFFKVHPDIHLDPVNFSFWTRQTYGPLHWRAGDGYQQVNFHVDVREDHHLLIREIAAKGTVLLKNTGGLPLKKPKFIAVIGDDAGPNPNGPNSCDDRGCNNGTLAMGWGSGTANFPYLITPDAALQARALRDGTRYESVLTNYALEKTETLVSQANATAIVFVNANSGEGYTRVDGNMGDRKNLTLWGNGDDLIKNVSSWCSNTIVVIHSTGPVLLTDWYNSPNITAILWAGLPGQESGNSLVDVLYGDVNPAGRTPFTWGATRESYGVDVMYKPNNDDGAPQQDFDEGVFIDYRYFDREDTPVIYEFGHGLSYTTFNYSNLKIEKHNAEPYKPTTGKTTPAPTFGQDDAYGYTGSEKYLFPPSPFRRITDYIYPYLNSTDPHEASLDPHYGQTAEQFLPPGALRADEQPLLRASGQHQPGGNPGLWDVLYTITADITNMGSVTGDEVPQLYVSLGGPQDPKVVLRGFDRLREIGPGETRQFMARLTRRDLSNWDPVLQDWVVGGHKKTVFVGKSSRKLELSAELP
For B1, where the note is “pH 5.5, 60 °C, pH 5.5, 60.0 °C”, the Km was 900 µM, the Vmax was 46.2 µmol/min/mg, the kcat came out at 73.1 s⁻¹ and the kcat/Km worked out at 81600 M⁻¹ s⁻¹.

B2: HiBgl3A (Mycothermus thermophilus; Y529T) (protein)
chain: NRHRQVIGRNHLNHHHRSQRELAYSPPSYPSPWMDPKAAEWQNAYAKAKAFVSKLTLLEKVNLTTGVGWASEQCVGNTGSVPRLGLRGLCLHDSPLGIRGSDYNSAFPSGQTTAATFDRILMYRRGYAMGKEAKGKGINVLLGPVAGPLGRMPAAGRNWEGFSPDPVLTGVGMAETIKGIQDAGVVACAKHLIGNEQEHFRQAGEDYGFNITEALSSNIDDKTMHELYLWPFVDAVRAGVGSVMCAYTQVNNSYSCQNSYLLNYLLKNELGFQGFVMSDWQAQHAGVSAAVAGLDMSMPGDTTFNTGVSFWGANLTLAVLNGTVPRYRIDDMAMRIMAAFFKVHPDIHLDPVNFSFWTRQTYGPLHWRAGDGYQQVNFHVDVREDHHLLIREIAAKGTVLLKNTGGLPLKKPKFIAVIGDDAGPNPNGPNSCDDRGCNNGTLAMGWGSGTANFPYLITPDAALQARALRDGTRYESVLTNYALEKTETLVSQANATAIVFVNANSGEGTTRVDGNMGDRKNLTLWGNGDDLIKNVSSWCSNTIVVIHSTGPVLLTDWYNSPNITAILWAGLPGQESGNSLVDVLYGDVNPAGRTPFTWGATRESYGVDVMYKPNNDDGAPQQDFDEGVFIDYRYFDREDTPVIYEFGHGLSYTTFNYSNLKIEKHNAEPYKPTTGKTTPAPTFGQDDAYGYTGSEKYLFPPSPFRRITDYIYPYLNSTDPHEASLDPHYGQTAEQFLPPGALRADEQPLLRASGQHQPGGNPGLWDVLYTITADITNMGSVTGDEVPQLYVSLGGPQDPKVVLRGFDRLREIGPGETRQFMARLTRRDLSNWDPVLQDWVVGGHKKTVFVGKSSRKLELSAELP
As for B2, under “optimal conditions”, the Michaelis constant (Km) turned out to be 2450 µM, the Vmax amounted to 43 µmol/min/mg, the kcat is 68.2 s⁻¹ and the kcat/Km is 27800 M⁻¹ s⁻¹.

B3: HiBgl3B (Mycothermus thermophilus; I311F) (protein)
chain: RVVEPRDPVPQGYHAASYYPAPHGGWVSSWREAYEKAYALVSQMTLAEKVNITSGVGIYMGPCVGNTGSVDRLGFPQLCLQDSALGVASADNVTAFPAGITTGATWDKQLMYARGVAIGKEFRGKGANIHLGPSVGPLGRKPLGGRNWEGFGSDPVLQGKAAALHIRGVQEQGIIATIKHLVGNEQEMYRMYHIFQEGYSANIDDRTLHELYLWPFAEAVRAGVGAAMTAYNAVNGSACSQNSYLINGILKDELGFQGLVMSDWLSHISGVGSALAGLDLNMPGDTNFPLFGNSLWQYELTRAVLNGSVPVDRLNDMATRVVATWYKFGQDKNHPRPNFSSNTRSRDGPLYPGALFSPSGQVNWFVNVQEDHYLVARQVAQDAITLLKNNDSLLPLDAGDLTGGKLSVFGTDAQVNPDGPNSCLARACNKGTLGMGWGSGIADYPYMDDPIGAIRKRVPDVKFYNTDSFPWFFGTPENDEVAMVFISSDSGENTLTVEGNHGDRDSAKLRAWHDGDKLVQKVAEKFKNVIVVVHTVGPLDLEPWIELPSVKAVLFAHLPGQEAGESLTNVLFGDVSPSGHLPYSITRKASDLPDSIANLKGFTWGQVQDTYSEGLYIDYRYLQKHSIQPRFAFGHGLSYTNFSFTNATIRAITTPLSVTPPAPPATRPASVVAKYSTDIPPASEAYEPAGFSRIWRYLYPWLSKSDADAAHAIGTSKSKTYPYPPGYSTVQRASFPPAGGGEGGNPALWDVAYEVTVRVTNTGKRPGKASAQLYLQFPEGIEYDTPVLQLRDFEKTKELQPGESQELKLTLTRKDVSVWDVRRQNWVVPTAIDDKKGFTAWVGEASDKLKVACYTGEGRCVEGAKQPV
For the protein B3, for the setting “optimal conditions”, the Km turned out to be 2420 µM, the Vmax was 6.07 µmol/min/mg, the kcat is 9.61 s⁻¹ and the kcat/Km turned out to be 3980 M⁻¹ s⁻¹.

B4: HiBgl3B (Mycothermus thermophilus; T517Y) (protein)
chain: RVVEPRDPVPQGYHAASYYPAPHGGWVSSWREAYEKAYALVSQMTLAEKVNITSGVGIYMGPCVGNTGSVDRLGFPQLCLQDSALGVASADNVTAFPAGITTGATWDKQLMYARGVAIGKEFRGKGANIHLGPSVGPLGRKPLGGRNWEGFGSDPVLQGKAAALHIRGVQEQGIIATIKHLVGNEQEMYRMYHIFQEGYSANIDDRTLHELYLWPFAEAVRAGVGAAMTAYNAVNGSACSQNSYLINGILKDELGFQGLVMSDWLSHISGVGSALAGLDLNMPGDTNIPLFGNSLWQYELTRAVLNGSVPVDRLNDMATRVVATWYKFGQDKNHPRPNFSSNTRSRDGPLYPGALFSPSGQVNWFVNVQEDHYLVARQVAQDAITLLKNNDSLLPLDAGDLTGGKLSVFGTDAQVNPDGPNSCLARACNKGTLGMGWGSGIADYPYMDDPIGAIRKRVPDVKFYNTDSFPWFFGTPENDEVAMVFISSDSGENYLTVEGNHGDRDSAKLRAWHDGDKLVQKVAEKFKNVIVVVHTVGPLDLEPWIELPSVKAVLFAHLPGQEAGESLTNVLFGDVSPSGHLPYSITRKASDLPDSIANLKGFTWGQVQDTYSEGLYIDYRYLQKHSIQPRFAFGHGLSYTNFSFTNATIRAITTPLSVTPPAPPATRPASVVAKYSTDIPPASEAYEPAGFSRIWRYLYPWLSKSDADAAHAIGTSKSKTYPYPPGYSTVQRASFPPAGGGEGGNPALWDVAYEVTVRVTNTGKRPGKASAQLYLQFPEGIEYDTPVLQLRDFEKTKELQPGESQELKLTLTRKDVSVWDVRRQNWVVPTAIDDKKGFTAWVGEASDKLKVACYTGEGRCVEGAKQPV
For the protein B4, where the note is “optimal conditions”, the Km was found to be 2370 µM, the Vmax is 9.51 µmol/min/mg, the catalytic constant (kcat) was 15.1 s⁻¹ and the kcat/Km amounted to 6360 M⁻¹ s⁻¹.

B5: HiBgl3B (Mycothermus thermophilus; I311F/I81W/T517Y) (protein)
chain: RVVEPRDPVPQGYHAASYYPAPHGGWVSSWREAYEKAYALVSQMTLAEKVNITSGVGWYMGPCVGNTGSVDRLGFPQLCLQDSALGVASADNVTAFPAGITTGATWDKQLMYARGVAIGKEFRGKGANIHLGPSVGPLGRKPLGGRNWEGFGSDPVLQGKAAALHIRGVQEQGIIATIKHLVGNEQEMYRMYHIFQEGYSANIDDRTLHELYLWPFAEAVRAGVGAAMTAYNAVNGSACSQNSYLINGILKDELGFQGLVMSDWLSHISGVGSALAGLDLNMPGDTNFPLFGNSLWQYELTRAVLNGSVPVDRLNDMATRVVATWYKFGQDKNHPRPNFSSNTRSRDGPLYPGALFSPSGQVNWFVNVQEDHYLVARQVAQDAITLLKNNDSLLPLDAGDLTGGKLSVFGTDAQVNPDGPNSCLARACNKGTLGMGWGSGIADYPYMDDPIGAIRKRVPDVKFYNTDSFPWFFGTPENDEVAMVFISSDSGENYLTVEGNHGDRDSAKLRAWHDGDKLVQKVAEKFKNVIVVVHTVGPLDLEPWIELPSVKAVLFAHLPGQEAGESLTNVLFGDVSPSGHLPYSITRKASDLPDSIANLKGFTWGQVQDTYSEGLYIDYRYLQKHSIQPRFAFGHGLSYTNFSFTNATIRAITTPLSVTPPAPPATRPASVVAKYSTDIPPASEAYEPAGFSRIWRYLYPWLSKSDADAAHAIGTSKSKTYPYPPGYSTVQRASFPPAGGGEGGNPALWDVAYEVTVRVTNTGKRPGKASAQLYLQFPEGIEYDTPVLQLRDFEKTKELQPGESQELKLTLTRKDVSVWDVRRQNWVVPTAIDDKKGFTAWVGEASDKLKVACYTGEGRCVEGAKQPV
On to B5, for which, for the setting “optimal conditions”, the Km was determined as 2480 µM, the Vmax amounted to 2.68 µmol/min/mg, the kcat amounted to 4.24 s⁻¹ and the kcat/Km came to 1710 M⁻¹ s⁻¹.

B6: HiBgl3C (Mycothermus thermophilus) (protein)
chain: APNCPVVPRQASGTAAWDTAYASARAAVARLSQQDKINIVTGIGWERGPCVGNTAPVNSIGYPQLCLQDGPLGIRFATGTTAFTPGVQAASTWDVDLIRQRGEYLGAEARAVGVHVLLGPVAGALGKIPHGGRNWEGFGSDPYLAGICMAETIEAIQSQGVQACAKHYIVNEQEWMRETMSSNVDDRTMHEIYLWPFADAAHSNVASFMCSYNKINGTWACESDSVQNKLLKQELGFRGYIMSDWNAQHTTVGSANSGMDMTMPGTDFSGGNVLWGPQLNNAVNSGQVSRARLDDMATRILAAWYLVGQDKGYPQVNLRLNVQGNHKENVRAVARDGIVLLRNEGNILPLGRPSRIAVVGSGAVIGRHAQNGCQDKGCNDGALGMGWGSGSVNYPYFVAPYDAIRERASRDGTQVSLHSSDNTNGVQNVVQGADVAIVFITADSGEGYITVEGHPGDRNHLDPWHNGNQLVQAVAAANKNTIVVVHSTGPIILETILNTPGVRAVVWAGLPSQENGNAIVDILYGSTSPSGKLVYTIAKRPEDYGVSIVRGDDNFREGVFVDYRWFDQNNIEPRFEFGFGLSYTNFSYSGLSITSNARAGPATGPTIPGGPADLWETVATVTAQITNTGGVAGAEVAQLYLTLPPTAPPAGPRQLRGFTKLKLQPGQTGTATFKLRKRDLSYWDVGRQQWVVPSGRFTISVGASSRDIRLTGSIDV
As to B6, under setting [1], the Km worked out at 200 µM and the kcat/Km stood at 1.56e+06 M⁻¹ s⁻¹.
